This note sets out measurements from the NTF2 design screens of Basanta et al. (2020).

This data set is described as follows: protease stability score; higher = more stable; yeast display proteolysis, trypsin and chymotrypsin.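 Note: relative to predicted unfolded state with 0 unfolded-like and 1 meaning tenfold more protease.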
“DETTKLVEEVTRLLERAWETGDEETIYQLLDPNVKWNINGVDFHGMEHLAREIIHELRRHGFRVRFRLHHIDIQGDKARVESIEHIHIGNKHIHRRTYLFLSKVNGVWSIQEQRVE” gave a protease stability score of 1.44.

“DETTQYIREILEIMRRTFHTGDFDTMLELMDPHARIVIGEKDEHGWEAAHHQMEYLLREWRIHDVEIRDVELQGDKIRVKLIVTGRIGDKLTLIDVELHVLKVNGKWYLKEISIR”: the protease stability score came to 1.19.

As for “DEVDDEVDKMLEFVLDSWETGDEHINRDLMDPNVLVEAENRTLIGREWAEEFLHSIKKRFPNMRVQLHDMRVVGDKVELDTELRYGEYHNRTHIIALKVNGKWLVEKVHFH”, the protease stability score turned out to be 1.13.

In turn, “DEVDEDEKHALHLLEHSIKTGDERMITEMMDPRYRLIINGQEFHGRELWIELWQRIKNIRINDVKFEELRVVGNKLRVRVHLDVQIGDKRYILDTEIVAVKVNGRWLNEEIIIR” had a protease stability score of 1.39.

“DEVDHMIELVTRLFIHAVLTGDEKILRDLMDPHVRVHVDGKKLHGWKEFIDWLREELERYDHFHFRVHHYNVVNGRVHADGNLDVHFNGRKHHITTDLRLIIWDGRIKTVDIRHH” came in with a protease stability score of 1.75.

With “DEVEELAKRLLEELIHALETGDFDHNRHLLDPNVRIVIGEKDHVGWREVTKALRHMGIDHIHVRIHRIEVQGDKVHTESSVEMDINGKKLEFDTWLILRKVNGRWLFHSIEIR”, the protease stability score is 1.44.

As to “DEVEELIEENRRFFEESWMTGDEDSLRKNADPNVRLKVGEFHLIGREAFETWARQAVHMDSIEIHHMHFFDGVVHSITHFDGKFNGRKERHSIYLVELKVNGRWLNHEIRLK”, the protease stability score amounted to 0.511.

In turn, “DEVEENAIRIAEDMLNNVLTGDEHLLRQLLDPHVRFILIVGDKTYTWHGREDFLEWLRKRLKQIDHEHIIIRDIKVVGDKAHIDGELHINVNGRTEDTRVHWDILVINGRIHKIRIIIH” came in with a protease stability score of 1.38.

In the case of “DEVEERMKRIVKHFVSAVLTGNFRHMEQLFDPNYKHRIEIGDKIVNLHGWEAVVKWIEEEWRRFDHVEIRIRDMDVIGNKSEVHGDLHLKAENHTLEIHVIEHFFIVNGKLHHIEKTHH”, the protease stability score is -0.007.

Regarding “DEVEHHMKTITDRLLTAIETGDEDEWERLLDPRVRVDIGDKHIHGREDYNRKFRERGFEIKRWEMKDMDVINGQIRIDGHRKIHIDGVTTRNTVHIIIVVYNGRVKHFEHRHE”, the protease stability score is 0.578.

Sequence “DEVEHIVRWMVELLMRALQTGDEETLTRLMDPHARHEIDGKESHGREFLDTLKRRFKNIQWHSIEIEDYKHYDGRVEIHGILHVRVGDKRHEIHIEFVIQKIDGRWHVDRLHLK” gave a protease stability score of 1.55.

The sequence “DEVEHLLELMFRLIIETIRTGDEKLLEHLVDPNAKSLIDGRDYHGREMARHWHNRVDHLNDVHINDRKVQGEKIELDVRVDGRVGDKRIDERVHIIAFKINGQWIIHKMEVR” returned a protease stability score of 0.991.

For “DEVEKFSRDMLHFVRHLWETGDPHLFSRLADPHAQVHIGDKRLHGREEFEKHIEEMIERFPGIRLNLRHFEVQGDKMLVNFEIRVGEKNFTIHLEARKINGRWYIESVEVR”, the protease stability score worked out at 0.894.

“DEVEKHLVHLTHRWIHSLLTGDEETISELLDPHARFNQGEWHHHGRELELRYWKEIRFKEMRISRYTAQGDKYHLDTELKGQVDGKEVRVRTHVHLVWVNGRAQSIYVEIH” returned a protease stability score of 1.02.

In turn, “DEVEKIVYDFLQRHIEHLLTGDEDSFTHNLDPHVRIHIDGQRLIGREDARREVRRLGFDHVEITKIEHQGEKLIVHGTMIINGQEIHLTIYIWKINGRWVVQSIEIK” had a protease stability score of 0.706.

On to “DEVEKSVKEWVNIVIHWLKTGNEEEILKYADPNVRLNVNGVNYVGRENAEHASREHLHELGIKHEEQKDVKIHSINGRMLLIIHMRLEYDGQHHEVTIIVRTIKINGRWHIHEVEIRND”, for which the protease stability score is 1.21.

Consider “DEVERDSELALREFYHAFRTGDEHTLVDLADPRTLTIWNGVELHGREEMKRLWHKVKNITVHDHHIDHERLIGNFVYMDVTIDGTFNGRRYRVRSHMVILKINGKWLYEKQHYE”, for which the protease stability score worked out at 1.16.

The sequence “DEVERHLKEIFKDLERALNTGDEDRFEHLMDPHARYDVNGVEFIGMRWFRKLVKEIRIRHVDMRLEDVRHVGDFVKMITRIHIEVDINGKNDERETRTILIMHKIDGRWEIKEVIFL” came in with a protease stability score of 1.38.

In the case of “DEVERWAKEIAELFLKLYLTGNWKNLERLLDPHMQFIIDGVRIHGREEMREFIRHEREFFKGMRHEITDSHVDVQGEKVEVHLHIEVIVNGQKHVRHINLHIEKIDGQWLIKLVIIHHE”, the protease stability score is 1.26.

In turn, “DEVHEEAERASEHFFESLLTGDEKSTESFIDPHAKMEFSFNGRNYDMIGRMWVEIEHRLLGIDHYIHKDNRTHSQGEKLLLIIHGRIRVGDKEFDVELHVIMMKIDGQWNVKRLEVRVK” came in with a protease stability score of 1.25.

The sequence “DEVIEELERFHRTYQHAVHTGDEETHADLMDPNVRIHIGDKHIHGREWLIELVHRLGFKHSKEHWIIRRYDLQGNKVDEDGEVKRILNINGVLEHEERRVRIIILKIDGKWIIHSMHIR” yielded a protease stability score of 0.433.

“DEVKEDTRRFFERIERALKTGDEDELKRMMDPHVQIHAENHEFHGREALRHFLERYDVVRDIKINDWRIINGRIQIDGEVEGVFNGRDKETHTIMILLKINGKWVITSLTIN” had a protease stability score of 2.09.

Turning to “DEVKKETDEFSEKFRHALLTGDEEEIEKMADPHVKVDIDGREHHGREEWSEIYREWIHKRGVRIKHIRDHEVRIINGRAIIDQRVHGIVNGQETTLEMHFTTTKIDGRWILTEVFVK”, the protease stability score worked out at 1.42.

In the case of “DEVKKFLDELLEILRKYSETGDEDSYTEMFDPNTRLLFEGRKFVGREEAIKFLRRVDVFSIKNFTMRHVETQGDWLHIDGEVLLLIIFNGKTFELKTKITFIMLKIDGRWILHAEEIR”, the protease stability score worked out at 1.71.

With “DEVQRDAEEFWRLLVEALVTGDEDLWRKLADPHMRLDVNGVEIHGMEHYLKRIIEEMRRLGVELKDFRLHDVDIQGNKMHLKTHIDGRVNGQKNTRREEYVITKIDGRWQLESIKVH”, the protease stability score is 2.04.

On to “DEVTEIAERFLEEFIQHHETGDEDRIRHLMDPHVRLTQGDKTLHGREEASRVVIELAKRIDHLHIKLTTIRVQGEKVYIHTELRMEVGDKELRFHVTFIFLKVNGRWRMHSVHIE”, for which the protease stability score stood at 1.06.

Take “DEWDEHLEHVAKLIIELLLTGDEETLSRLADPHTRLEWNGRETHGRENMQETLIKILKEIWIHDIRIRHVRTQGDKAHVEGEQDGIINGVRRILDVRILIVVFNGRLRSLRFQID”: the protease stability score came to 0.693.

As to “DEWDEKLHHFFELMSHAMETGDEHMQDELADPHVRLIINGVDYIGRERFREMVKRVDYFSVRDIHFKDKEIQGDFIHFRGTLNGEEIINGVRIEKEVDFKLLILKVDGRWFLESEERR”, the protease stability score was 0.668.

For “DEWDEMLHEWAERIIKHFITGDWESFVKMADPHVRLHVDGKDFIGRERMEEAFKELLERLGVDHVELHHVRVINGQNDVDEDVKVGNKRLKVIHHLVVYNGRIKSIEIETR”, the protease stability score stood at 1.39.

In the case of “DEWDNAREELKRMLFKLLETGDEDSFKRLIDPDARQHIDGQEIHGRERVYEIFYRIKNMTVHHIEDKHYEIVNGQIHSDVRIDMIVNGKRITLNIRVVMIKIDGKWYLHSEKIS”, the protease stability score was 1.6.

Regarding “DEWEEFVKRFLEAHVKANRTGDERLLQELIDPHVRIEFNGVELHGREIFTETISQLRIKDVNLRRYHMYDGQVEIHGELHGVFNGQEKDTKIHVREIKVDGRWKMKEYSIH”, the protease stability score was 0.994.

“DEWEELIEETAENIIRFIETGDEDFFRTFADPHMRFIYDQGDFRLIDHGREKVSEWLIRFLQEMRIIFIIEDVKVQGDKAHSQGRIHVNINGQRHEFNSRVIVVWVNGRLKYFRMSVR” yielded a protease stability score of 1.43.

Take “DEWEESHKLVSKMIADTDETGDERIKRRLLDPHARLIVDGREYHGREHMDKIWKYFGLDRIHVEVRRMHVYGDKVSLHVHSIYNGREVEVHIIIHKVDGRWHLHSVDIQ”: the protease stability score came to 0.596.

“DEWEETAKKATKDQLRDVATGDEDSHESLLDPNVKLQVGDKTFHGREEIHRWLREFLNKIPNIRLEVKEIHTQGDFVILDMKMDIDGREIHVRIVMIKVDGRWFVNKLIII” displayed a protease stability score of 0.615.
